Patent US20170183639A1

Target: purified human recombinant Src (human) (UniProt P12931)
Experiment: in vitro competition; Src pre-incubated with peptide, GST-CD2 pull-down as competitor

pNaSH2 (TAT-tagged CD2-derived peptide phosphorylated at Y260)
IC50: 500 nM
